Results on 15 molecules are retold here after US20090298765A1 (Takeda / Millennium, published 2009).

Starred links: 1 amine or outer side, 2 acyl side, 3 side chain; linkers in the order of their positions; H or OH if unused. Non-standard residues stand in square brackets, D forms with d. No end group written: not given here. Ala(2-Qui) = 2-quinolylalanine, O=C([C@H](Cc1ccc2ccccc2n1)N[*:1])[*:2]; Phe(3,4-Cl2) = N[C@@H](Cc1ccc(Cl)c(Cl)c1)C(=O)O; 1Nal = N[C@@H](Cc1cccc2ccccc12)C(=O)O; 2Nal = N[C@@H](Cc1ccc2ccccc2c1)C(=O)O; Arg(Me) = CNC(=N)NCCC[C@H](N)C(=O)O; Bta = N[C@@H](Cc1csc2ccccc12)C(=O)O; Cha = N[C@@H](CC1CCCCC1)C(=O)O; azaGly = NNC(=O)O

Assay [1] deals with T1, human OT7T175 (metastin receptor) (human, UniProt Q969F8 1-398).
T1 construct: expressed on CHO cells; also called hOT7T175; hOT7T175-expressed CHO cells
Briefly: competition with Cy-5 metastin (40-54) on hOT7T175-CHO cells, FMAT.

Assay [2] addresses T1, human OT7T175 (metastin receptor). Briefly: cell-based or functional assay.

T1 sequence (Q969F8 whole entry L364H): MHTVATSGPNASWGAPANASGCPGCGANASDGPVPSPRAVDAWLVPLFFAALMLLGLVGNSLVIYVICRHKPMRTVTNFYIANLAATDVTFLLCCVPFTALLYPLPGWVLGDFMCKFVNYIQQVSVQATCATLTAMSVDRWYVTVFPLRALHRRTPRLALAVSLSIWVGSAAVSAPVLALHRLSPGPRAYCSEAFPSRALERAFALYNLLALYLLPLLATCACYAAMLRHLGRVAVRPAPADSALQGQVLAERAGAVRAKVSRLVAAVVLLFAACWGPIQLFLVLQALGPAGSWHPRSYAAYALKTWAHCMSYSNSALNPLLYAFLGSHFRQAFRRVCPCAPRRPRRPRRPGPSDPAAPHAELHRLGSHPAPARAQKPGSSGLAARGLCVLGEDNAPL

The term IC50 denotes the concentration that inhibits the measured activity by half. Lower therefore signals higher potency. On to [dY][dW]NSFGL[Arg(Me)]F-NH2 (also called Compound No. 224) [des(1)-[D-Tyr2,D-Trp3,Arg(Me)9]MS10], for which the IC50 in assay [1] was 140 nM. The “Ca ion level-increasing activity (FLIPR)” value in assay [2] is 2 x Metastin (1-54).

B1: [Ala(2-Qui)10]MS10 (peptide)
peptide: YNWNSFGLR[Ala(2-Qui)]-NH2
modifications: N-terminus assumed
SMILES: CC(C)C[C@H](NC(=O)CNC(=O)[C@H](Cc1ccccc1)NC(=O)[C@H](CO)NC(=O)[C@H](CC(N)=O)NC(=O)[C@H](Cc1c[nH]c2ccccc12)NC(=O)[C@H](CC(N)=O)NC(=O)[C@@H](N)Cc1ccc(O)cc1)C(=O)N[C@@H](CCCNC(=N)N)C(=O)N[C@@H](Cc1ccc2ccccc2n1)C(N)=O
notes: also called Compound No. 201
In the case of B1, the IC50 in assay [1] was determined as 820 nM. The “Ca ion level-increasing activity (FLIPR)” value in assay [2] is 1 x Metastin (1-54).

B2: [D-Tyr1,Cha3,6,Arg(Me)9,Trp10]MS10 (peptide)
peptide: [dY]N[Cha]NS[Cha]GL[Arg(Me)]W-NH2
modifications: N-terminus assumed
SMILES: CNC(=N)NCCC[C@H](NC(=O)[C@H](CC(C)C)NC(=O)CNC(=O)[C@H](CC1CCCCC1)NC(=O)[C@H](CO)NC(=O)[C@H](CC(N)=O)NC(=O)[C@H](CC1CCCCC1)NC(=O)[C@H](CC(N)=O)NC(=O)[C@H](N)Cc1ccc(O)cc1)C(=O)N[C@@H](Cc1c[nH]c2ccccc12)C(N)=O
notes: also called Compound No. 182
As to B2, the IC50 in assay [1] amounted to 98 nM. The “Ca ion level-increasing activity (FLIPR)” value in assay [2] was 5 x Metastin (1-54).
In the same order, the values of YNWNSXGLRF (D-Tyr1; Cha6; Arg(Me)9; C-terminal amide, also called Compound No. 203) [[D-Tyr1,Cha6,Arg(Me)9]MS10] are 37 nM and 10 x Metastin (1-54).

B3: [Ala(3-Bzt)10]MS10 (peptide)
peptide: YNWNSFGLR[Bta]-NH2
modifications: N-terminus assumed
SMILES: CC(C)C[C@H](NC(=O)CNC(=O)[C@H](Cc1ccccc1)NC(=O)[C@H](CO)NC(=O)[C@H](CC(N)=O)NC(=O)[C@H](Cc1c[nH]c2ccccc12)NC(=O)[C@H](CC(N)=O)NC(=O)[C@@H](N)Cc1ccc(O)cc1)C(=O)N[C@@H](CCCNC(=N)N)C(=O)N[C@@H](Cc1csc2ccccc12)C(N)=O
notes: also called Compound No. 189
B3: in assay [1], the half-maximal inhibitory concentration (IC50) was determined as 230 nM. The “Ca ion level-increasing activity (FLIPR)” value in assay [2] is 10 x Metastin (1-54).

B4: [D-Tyr1,Cha3,AzaGly7,Arg(Me)9]MS10 (peptide)
peptide: [dY]N[Cha]NSF[azaGly]L[Arg(Me)]F-NH2
modifications: N-terminus assumed
SMILES: CNC(=N)NCCC[C@H](NC(=O)[C@H](CC(C)C)NC(=O)NNC(=O)[C@H](Cc1ccccc1)NC(=O)[C@H](CO)NC(=O)[C@H](CC(N)=O)NC(=O)[C@H](CC1CCCCC1)NC(=O)[C@H](CC(N)=O)NC(=O)[C@H](N)Cc1ccc(O)cc1)C(=O)N[C@@H](Cc1ccccc1)C(N)=O
notes: also called Compound No. 190
B4: the half-inhibitory concentration (IC50) in assay [1] came to 12 nM. In assay [2], the “Ca ion level-increasing activity (FLIPR)” value is 10 x Metastin (1-54).

B5: [D-Tyr1,Thr2,Arg(Me)9]MS10 (peptide)
peptide: [dY]TWNSFGL[Arg(Me)]F-NH2
modifications: N-terminus assumed
SMILES: CNC(=N)NCCC[C@H](NC(=O)[C@H](CC(C)C)NC(=O)CNC(=O)[C@H](Cc1ccccc1)NC(=O)[C@H](CO)NC(=O)[C@H](CC(N)=O)NC(=O)[C@H](Cc1c[nH]c2ccccc12)NC(=O)[C@@H](NC(=O)[C@H](N)Cc1ccc(O)cc1)[C@@H](C)O)C(=O)N[C@@H](Cc1ccccc1)C(N)=O
notes: also called Compound No. 215
Take B5: in assay [1], the IC50 was 250 nM. Also, in assay [2], the “Ca ion level-increasing activity (FLIPR)” value is 10 x Metastin (1-54).

B6: [D-Tyr1,Thr3,Arg(Me)9]MS10 (peptide)
peptide: [dY]NTNSFGL[Arg(Me)]F-NH2
modifications: N-terminus assumed
SMILES: CNC(=N)NCCC[C@H](NC(=O)[C@H](CC(C)C)NC(=O)CNC(=O)[C@H](Cc1ccccc1)NC(=O)[C@H](CO)NC(=O)[C@H](CC(N)=O)NC(=O)[C@@H](NC(=O)[C@H](CC(N)=O)NC(=O)[C@H](N)Cc1ccc(O)cc1)[C@@H](C)O)C(=O)N[C@@H](Cc1ccccc1)C(N)=O
notes: also called Compound No. 205
B6 displayed an IC50 in assay [1] of 260 nM. Further, the “Ca ion level-increasing activity (FLIPR)” value in assay [2] is 10 x Metastin (1-54).

B7: [D-Tyr1,Val3,AzaGly7,Arg(Me)9]MS10 (peptide)
peptide: [dY]NVNSF[azaGly]L[Arg(Me)]F-NH2
modifications: N-terminus assumed
SMILES: CNC(=N)NCCC[C@H](NC(=O)[C@H](CC(C)C)NC(=O)NNC(=O)[C@H](Cc1ccccc1)NC(=O)[C@H](CO)NC(=O)[C@H](CC(N)=O)NC(=O)[C@@H](NC(=O)[C@H](CC(N)=O)NC(=O)[C@H](N)Cc1ccc(O)cc1)C(C)C)C(=O)N[C@@H](Cc1ccccc1)C(N)=O
notes: also called Compound No. 234
Molecule B7 came in with an IC50 in assay [1] of 47 nM. In assay [2], the “Ca ion level-increasing activity (FLIPR)” value was 1 x Metastin (1-54).

B8: [D-Tyr1,Val3,Arg(Me)9]MS10 (peptide)
peptide: [dY]NVNSFGL[Arg(Me)]F-NH2
modifications: N-terminus assumed
SMILES: CNC(=N)NCCC[C@H](NC(=O)[C@H](CC(C)C)NC(=O)CNC(=O)[C@H](Cc1ccccc1)NC(=O)[C@H](CO)NC(=O)[C@H](CC(N)=O)NC(=O)[C@@H](NC(=O)[C@H](CC(N)=O)NC(=O)[C@H](N)Cc1ccc(O)cc1)C(C)C)C(=O)N[C@@H](Cc1ccccc1)C(N)=O
notes: also called Compound No. 229
B8: the IC50 in assay [1] stood at 130 nM. Further, in assay [2], the “Ca ion level-increasing activity (FLIPR)” value is 1 x Metastin (1-54).
In turn, [dY]NWNSFGV[Arg(Me)]F-NH2 (also called Compound No. 213) [[D-Tyr1,Val8,Arg(Me)9]MS10] returned a 50% inhibitory concentration (IC50) in assay [1] of 190 nM. Besides, in assay [2], the “Ca ion level-increasing activity (FLIPR)” value was 2 x Metastin (1-54).
In the same order, the values of [dY][2Nal]NSF[azaGly]L[Arg(Me)]F-NH2 (also called Compound No. 255) [des(1)-[D-Tyr2,Nal(2)3,AzaGly7,Arg(Me)9]MS10] are 33 nM and 1 x Metastin (1-54).

B9: [D-Tyr1,Nal(1)3,AzaGly7,Arg(Me)9]MS10 (peptide)
peptide: [dY]N[1Nal]NSF[azaGly]L[Arg(Me)]F-NH2
modifications: N-terminus assumed
SMILES: CNC(=N)NCCC[C@H](NC(=O)[C@H](CC(C)C)NC(=O)NNC(=O)[C@H](Cc1ccccc1)NC(=O)[C@H](CO)NC(=O)[C@H](CC(N)=O)NC(=O)[C@H](Cc1cccc2ccccc12)NC(=O)[C@H](CC(N)=O)NC(=O)[C@H](N)Cc1ccc(O)cc1)C(=O)N[C@@H](Cc1ccccc1)C(N)=O
notes: also called Compound No. 245
In turn, B9 returned an IC50 in assay [1] of 98 nM. Moreover, the “Ca ion level-increasing activity (FLIPR)” value in assay [2] is 1 x Metastin (1-54).
In the same order, the values of YNWNSFGLR[Phe(3,4-Cl2)]-NH2 (also called Compound No. 199) [[Phe(3,4Cl2)10]MS10] are 470 nM and 3 x Metastin (1-54).

B10: [D-Tyr1,Nal(2)3,AzaGly7,Arg(Me)9]MS10 (peptide)
peptide: [dY]N[2Nal]NSF[azaGly]L[Arg(Me)]F-NH2
modifications: N-terminus assumed
SMILES: CNC(=N)NCCC[C@H](NC(=O)[C@H](CC(C)C)NC(=O)NNC(=O)[C@H](Cc1ccccc1)NC(=O)[C@H](CO)NC(=O)[C@H](CC(N)=O)NC(=O)[C@H](Cc1ccc2ccccc2c1)NC(=O)[C@H](CC(N)=O)NC(=O)[C@H](N)Cc1ccc(O)cc1)C(=O)N[C@@H](Cc1ccccc1)C(N)=O
notes: also called Compound No. 246
With B10, the 50% inhibitory concentration (IC50) in assay [1] was 7.1 nM. Moreover, the “Ca ion level-increasing activity (FLIPR)” value in assay [2] is 2 x Metastin (1-54).
